# Data: PMC4333417 (Nucleic Acids Research, 2015)
# Changes are numbered by the printed parent chain.
# T1: Sco5333 Y50A (Streptomyces coelicolor, UniProt Q9ADD4 1-301, Y50A)
# T1 sequence: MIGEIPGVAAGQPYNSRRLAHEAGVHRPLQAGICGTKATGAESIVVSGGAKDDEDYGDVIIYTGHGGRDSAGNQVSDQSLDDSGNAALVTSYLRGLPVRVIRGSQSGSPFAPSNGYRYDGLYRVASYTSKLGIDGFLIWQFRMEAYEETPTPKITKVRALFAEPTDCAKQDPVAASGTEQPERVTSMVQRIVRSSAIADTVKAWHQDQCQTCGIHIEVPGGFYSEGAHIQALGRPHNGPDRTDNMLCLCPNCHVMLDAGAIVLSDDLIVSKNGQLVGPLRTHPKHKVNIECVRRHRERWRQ
# T2: Sco5333 H253A (Streptomyces coelicolor, UniProt Q9ADD4 1-301, H253A)
# T2 sequence: T1 sequence with A50Y, H253A
# T3: Sco5333 H228A (Streptomyces coelicolor, UniProt Q9ADD4 1-301, H228A)
# T3 sequence: T1 sequence with A50Y, H228A
# T4: Sco5333 G32A (Streptomyces coelicolor, UniProt Q9ADD4 1-301, G32A)
# T4 sequence: T1 sequence with G32A, A50Y
# T5: Sco5333 (Streptomyces coelicolor, UniProt Q9ADD4 1-301)
# T5 sequence: T1 sequence with A50Y
# B1: 66nt non-methylated (66nt-2/4) (dsDNA)
# DNA 1: AAAAACGGCGTTTCCGGGTTCCATAGGCTCCGCACCGGTCTCTGATGACCAGGGCATCACATTTTT
# DNA 2: AAAAATGTGATGCCCTGGTCATCAGAGACCGGTGCGGAGCCTATGGAACCCGGAAACGCCGTTTTT
# B2: 54nt fully methylated (54nt-1/3) (dsDNA)
# DNA 1: GAAACCCGACAGGACTATAAAGATACCGGCGTTTCCCCCTGGAAGCTCCCTCGT
# DNA 2: ACGAGGGAGCTTCCAGGGGGAAACGCCGGTATCTTTATAGTCCTGTCGGGTTTC
# modifications: 5mC at strand 1 pos 27 and strand 2 pos 27
# Columns and labels:
# [1] = molecular target: MBD of human MeCP2 (human, UniProt P51608 77-166); experiment: EMSA
# MBD of human MeCP2, sequence (P51608 77-166): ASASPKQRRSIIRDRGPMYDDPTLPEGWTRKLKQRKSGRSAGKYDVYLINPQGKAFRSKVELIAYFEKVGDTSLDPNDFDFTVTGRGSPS
# [2] = molecular target: T1, Sco5333 Y50A; experiment: EMSA
# [3] = molecular target: T2, Sco5333 H253A; experiment: EMSA
# [4] = molecular target: MBD of mouse MeCP2 (mouse, UniProt Q9Z2D6 77-165); experiment: EMSA
# MBD of mouse MeCP2, sequence (Q9Z2D6 77-165): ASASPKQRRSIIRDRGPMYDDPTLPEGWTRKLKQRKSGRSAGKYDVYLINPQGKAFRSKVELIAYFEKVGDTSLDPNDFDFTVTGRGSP
# [5] = molecular target: T3, Sco5333 H228A; experiment: EMSA
# [6] = molecular target: T4, Sco5333 G32A; experiment: EMSA
# [7] = molecular target: T5, Sco5333; experiment: ITC
Binder,binding signal [1],binding result [2],binding result [3],binding result [4],binding result [5],binding result [6],Kd [7]
B1,64 protein:DNA molar ratio for shift,–,–,–,–,–,–
B2,–,no binding,binds,binds,binds,no binding,4.13 µM
